assay: soluble on expression in E. coli; label from the status in PepcDB or PDB records

Soluble on expression in E. coli, not soluble:
MNNKKPVCAEGMVKMEKKSLLILGTASHVGKSSVVTAICRILSRSYRVAPFKAQNMSLNSWITKDGKEIGIAQAIQAKAAGTEPTADMNPVLLKPKGDCVSQVVLLGEPYADKSAGQYYDSIEEMHAVLKGALERLWKEHDIIVMEGAGGAAEINLYERDIVNVGTARLTKAPIILVGDIERGGVFASLYGTIALLPEDVRKNVKGFIINKFRGDIEILRPGLKQLEDKTGIPVLGVLPHFKLRIPSEDSVSLGDKEDSKAEKEIEVAVIRLPRISNFTDFEPLEGLVKVRYVDINEELGNPDAIMIPGTKNTVNDLLDLRASGMDKKIQAFKGKVPIFGICGGYQMLGRTIFDSGVENGVEAEFEGLGLLDIGTRFGEYKKRTVQVTKKVNGYGPILRPIDGEEIKGYEIHMGVTDSNRTVFGDDGAIDEDGFVIGTYLHGLFDNRNIRNALVRYLYEKKGLEYEPDEAISENDAYEELANVVEQNIDMEKLFEIAGV
MLPKPGTYYLPWEVSAGQVPDGSTLRTFGRLCLYDMIQSRVTLMAQHGSDQHQVLVCTKLVEPFHAQVGSLYIVLGELQHQQDRGSVVKARVLTCV
APKNGTVQEKKFFSKELNEEMTLLVYLPSNYSPLYKYHVIIAQDGHDYFRLGRIGRQVEELLSKREIDRSIIIGVPYKDVKERRNTYHPEGSKFSAYKRFIAHELVPFADDEYPTYQIGYGRTLIGDSLGATVSLMTALDYPNMFGNIIMQSPYVDKHVLEAVKQSDDIKHLSIYHQIGTKETDVHTTDGNILDFTEPNRELKQLLEKKLSDYDFEPFDGDHKWTYWQPLITPALKKML
MEKRNIQVTRHFVCADQLQQISETVIACLGQEDLITISGGLGPISDDKTRDAVAKAVRQPLFHHEDVWQTIKGQLGWLGSTPDSNNARQALFPETAKVLDNPTGTAPGFYLSCGESILVILTGSLTQAFALLENYLEHGEKKYSSVSRARYAWILIGIDESAIAHWVDCQLANELFERHFYGKALMFSYNWLASHQRFWLSI
MGSDKIHHHHHHMKVVFVSYEVFPFAKVGGLADVAGTLPKYLKKHGVDVTIVMPKHRIVEKNAEKFGYEIKKVAESLSVSHVKTDQKFDIYESVLPGSDVKTYFVANDYYFSAEDVYAGPDLGEQAIFFCAATLDLVKHLDLKPDIVHVNDWQTALIPVYLKTVYRDDPYFSRTATVLTIHNLGYQGVFDPKYLSFAGLPDYVYTIDGLEFYGQLNFLKGGIVFSDVINTVSPTYAEEIQTEEYGEKLDGVLRMRSKDLYGILNGIDYELYNPATDRYIYVNYDVNRLELKWENKVKLQEELGLPVNKETAVAGLISRLVPQKGLDLLVDVMDYLTLFDLQIVVLGTGDEQYENAFRKFQERYPDKVSANIKFDVELAQKIYAGADIFLMPSRYEPCGLGQMFSMRYGTIPVVRYTGGLADTVKEYDPQSMEGTGFGFKKYDSAHLLKAVSKALHFYYREKDHWRRIMTNAMNTDLSWDRSAKEYVDLYKKALAKVGR
MGSDKIHHHHHHMNLPTASRLQFTPDLNICRILNGMWQVSGAHGRINPQAAIETMFKYLDAGFTTWDLADHYGPAEDFIGEFRCQLIDTRGKDALSKVQAFTKWVPRPGKMTKKLVEENIDISLRRMNVESLDLMQFHWWEYQDKNYLDALKYMAELQTEGKIKHLGLTNFDTENLKLITEAGIKIVSNQVQFSLIDRRPEVNMAEFCQQHDIKLFTYGTLCGSLLSENYLGKPEPRGSDLSTASLKKYKNMIDAWGGWQLFQELLAILKEIANKHKVSISNVAVRYILDQPTVGGVIVGARLGVSEHIEDNAKVFSFSLDADDRDRISAVSRQSRDLYQLIGDCGDEYRR
MEDRIQKAVELFKSGYNCSQSVVAAFADMYGFTQEQAVRMSASFGGGIGRMRETCGAACGLFLIAGLETGATEATDREGKAANYAVVQELAAEFKKRNGSLICGELLGLKKKEPISTVPEERNTQYYSKRPCAKMVEEAARIWVEYLEKHPK

Soluble on expression in E. coli, soluble:
MSLSYSNILVAVAVTPESQQLLAKAVSIARPVKGHISLITLASDPEMYNQLAAPMLEDLRNVMQEETQSFLDKLIQDAGYPVDKTFIAYGELSEHILEVCRKHHFDLVICGNHNHSFFSRASCSAKRVITSSEVDVLLVPLTGDEGHHHHHH
PPIILQGPANQTLAVDGTALLKCKATGDPLPVISWLKEGFTFPGRDPRATIQEQGTLQIKNLRISDTGTYTCVATSSSGETSWSAVLDVTESG

From the DeepSol protein solubility set
